From paper PMC3411106, “Structural analysis of the human SYCE2–TEX12 complex provides molecular insights into synaptonemal complex assembly” (Open Biology, 2012)
Each block holds one molecule with its values, some of them ahead of it.

T1: MBP–SYCE2 (1–218) (human, UniProt Q6PIF2 1-218)
T1 construct: Tetramer by SEC–MALS; also called full-length SYCE2; source: E. coli Rosetta 2 (DE3); co-expressed (pRSFDuet-1), in clarified lysate for the pull-down; individually expressed, purified on amylose resin for SEC–MALS; not shown: MBP, N-terminal, kept
T1 sequence (looked up): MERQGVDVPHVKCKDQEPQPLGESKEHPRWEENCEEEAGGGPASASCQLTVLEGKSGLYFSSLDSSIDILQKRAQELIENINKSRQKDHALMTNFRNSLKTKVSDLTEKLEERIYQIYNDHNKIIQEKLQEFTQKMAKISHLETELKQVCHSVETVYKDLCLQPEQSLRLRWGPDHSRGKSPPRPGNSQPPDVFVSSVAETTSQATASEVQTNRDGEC

T2: MBP–SYCE2_(57–88) (human, UniProt Q6PIF2 57-88)
T2 construct: human SYCE2, residues 57–88 (α1 region); Monomer by SEC–MALS; also called α1 region of SYCE2; source: E. coli Rosetta 2 (DE3); co-expressed (pRSFDuet-1), in clarified lysate for the pull-down; individually expressed, purified on amylose resin for SEC–MALS; not shown: MBP, N-terminal, kept
T2 chain (looked up): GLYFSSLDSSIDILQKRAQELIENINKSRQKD

B1: TEX12_(49–123), tag cleaved (domain or fragment, human, UniProt Q9BXU0 49-123, looked up)
chain: KDEALEKDLNDVSKEINLMLSTYAKLLSERAAVDASYIDEIDELFKEANAIENFLIQKREFLRQRFTVIANTLHR
notes: not shown: His-tag, N-terminal, cleaved
B2: MBP-TEX12_(49–123) (domain or fragment, human, UniProt Q9BXU0 49-123, looked up)
chain: B1 chain
notes: Dimer by SEC–MALS; source: E. coli Rosetta 2 (DE3), individually expressed, purified on amylose resin; not shown: MBP, N-terminal, kept
B3: SYCE2_(57–165), tag cleaved (domain or fragment, human, UniProt Q6PIF2 57-165, looked up)
chain: GLYFSSLDSSIDILQKRAQELIENINKSRQKDHALMTNFRNSLKTKVSDLTEKLEERIYQIYNDHNKIIQEKLQEFTQKMAKISHLETELKQVCHSVETVYKDLCLQPE
notes: also called central conserved region of SYCE2; source: E. coli Rosetta 2 (DE3), co-expressed with TEX12 constructs, co-purified (Ni–NTA, amylose, TEV cleavage, Resource Q); not shown: MBP, N-terminal, cleaved
B4: MBP-TEX12_(24–123) (domain or fragment, human, UniProt Q9BXU0 24-123, looked up)
chain: VPDSPQLSSLGKSDSSFSEISGLFYKDEALEKDLNDVSKEINLMLSTYAKLLSERAAVDASYIDEIDELFKEANAIENFLIQKREFLRQRFTVIANTLHR
notes: as for B2
B5: TEX12 (1–123), tag cleaved (natural protein, human, UniProt Q9BXU0 1-123, looked up)
chain: MMANHLVKPDNRNCKRPRELESPVPDSPQLSSLGKSDSSFSEISGLFYKDEALEKDLNDVSKEINLMLSTYAKLLSERAAVDASYIDEIDELFKEANAIENFLIQKREFLRQRFTVIANTLHR
notes: as for B1
B6: MBP–TEX12_(1–123) (natural protein, human, UniProt Q9BXU0 1-123, looked up)
chain: B5 chain
notes: Homodimer by SEC–MALS; source: E. coli Rosetta 2 (DE3), individually expressed, purified on amylose resin; not shown: MBP, N-terminal, kept
B7: His–TEX12 (1–123) (natural protein, human, UniProt Q9BXU0 1-123, looked up)
chain: B5 chain
notes: source: E. coli Rosetta 2 (DE3), co-expressed (pRSFDuet-1), in clarified lysate; not shown: His-tag, N-terminal, kept

Columns and labels:
MBP–SYCE2 (1–218) [1] = molecular target: T1, MBP–SYCE2 (1–218); assay: SEC-MALS; 100 µl at 1–5 mg ml^−1 on Superdex 200 10/300 GL; 20 mM Tris pH 8.0, 150 mM KCl, 2 mM DTT; purified complexes or purified fusion proteins
[2] = molecular target: His–SYCE2 (1–218) (human) (UniProt Q6PIF2); assay: as above
[3] = molecular target: B3; assay: SDS–PAGE band densitometry of the purified complex; Coomassie-stained SDS–PAGE of the co-purified, tag-cleaved complex; densitometry with IMAGEJ; settings: both partners purified
[4] = molecular target: the molecule itself; assay: SEC-MALS; 100 µl at 1–5 mg ml^−1 on Superdex 200 10/300 GL; 20 mM Tris pH 8.0, 150 mM KCl, 2 mM DTT; purified complexes or purified fusion proteins
[5] = molecular target: the molecule itself; assay: AUC; sedimentation velocity of co-purified, tag-cleaved complexes; SYCE2_(57–165)–TEX12 at 57 µM, SYCE2_(57–165)–TEX12_(49–123) at 289 µM; 20 mM Tris pH 8.0, 145 mM KCl, 2 mM DTT; 30 000 r.p.m., 20°C; c(S) fit
MBP–SYCE2_(57–88) = molecular target: T2, MBP–SYCE2_(57–88); assay: pull-down; amylose pull-down after co-expression in bacteria of MBP-fusion SYCE2 constructs (bait) with His-tagged TEX12 or SYCE2 constructs; lysis in 20 mM Tris pH 8.0, 500 mM KCl, 2 mM DTT; 1 h at 4°C; maltose elution; Coomassie-stained SDS–PAGE; settings: partners not purified
MBP–SYCE2 (1–218) [6] = molecular target: T1, MBP–SYCE2 (1–218); assay: as above; settings: partners not purified

stoichiometry N (MBP–SYCE2 (1–218) [1]): 4
Molecule: MBP–SYCE2 (1–218) (from UniProt Q6PIF2 1-218) (natural protein)

stoichiometry N [2]: 4
Molecule: His–SYCE2 (1–218) (from UniProt Q6PIF2 1-218) (natural protein)

Molecule: B1
stoichiometry N [3]: 1

Molecule: B2
stoichiometry N [4]: 2

Molecule: B3
binding result [5]: binds

Molecule: B4
stoichiometry N [4]: 2

Molecule: B5
stoichiometry N [3]: 1

Molecule: B6
stoichiometry N [4]: 2

Molecule: B7
integrated intensity of the TEX12 band relative to 57–165 (MBP–SYCE2_(57–88)): 96%
integrated intensity of the TEX12 band relative to 57–165 (MBP–SYCE2 (1–218) [6]): 62%
